{"source": "patent US20260209294A1", "about": "“USE OF RECOMBINANT PROTEIN IN PREPARING DRUG FOR INHIBITING ANEURYSM” (HUAZHONG UNIVERSITY OF SCIENCE AND TECHNOLOGY, priority 2022, published 2026)", "key": {"[1]": {"tested_on": "TAC-induced mouse aneurysm model", "test": "TAC (transverse aortic constriction)-induced aneurysm model, i.p. recombinant AGGF1 or AGGF1-RDDdel protein", "assay_type": "in vivo, C57BL/6 mice", "source_text": "RCAs are harvested after 21 days for the histological staining. […] The bar graphs at the bottom show the intima thickness (1st graph), the adventitia thickness (2nd graph), the total arterial wall thickness (3rd graph), a media cell density (4th graph), and the adventitia cell density (5th graph). […] The bar graphs on the right show the percentage of the collagen area and the percentage of the α-SMA positive area. * P<0.05; **, P<0.01; ***, P<0.001; a mouse sample size n=6/group.\nRCAs are harvested after 21 days for the histological staining and the western blot analysis. […] Bar graphs below show the percentage of the MCP1-positive cell area and the CD68-positive cell area. […] The β-actin serves as a loading control. […] The β-actin serves as a loading control. *, P<0.05; **, P<0.01; *** P<0.001; a mouse sample size n=6/group, other sample sizes n=4/group.\nThe bar graph on the right illustrates the luminal diameter of the ascending aorta. An ascending aortic tissue is harvested after 21 days for the histological staining. […] The bar graphs below display the intimal thickness (1st graph), the adventitia thickness (2nd graph), the total arterial wall thickness (3rd graph), the medial cell density (4th graph), and the adventitia cell density (5th graph). *, P<0.05; **, P<0.01; ***, P<0.001; a mouse sample size n=6/group.\nThe ascending aortic tissue is harvested for the histological staining 21 days after the surgery. […] Below are quantitative bar graphs showing the quantitation of the percentage of the positive area for each corresponding stain. *, P<0.05; **, P<0.01; *** P<0.001; a mouse sample size n≥6/group.\nFIG. 7 depicts that the intraperitoneal injection of the purified human AGGF1 protein, dependent on the RDD sequence, attenuates a TAC-induced ascending aortic TGF-β1 maturation and a signaling pathway, as well as the ERK1/2 signaling pathway. The RCAs are harvested after 21 days for the western blot analysis. […] The β-actin serves as a loading control. […] The β-actin serves as a loading control. *, P<0.05; **, P<0.01; ***, P<0.001; sample size n=4/group.\nThe research team obtained blood vessel samples from the thoracic aorta of 8 normal individuals and 8 patients with the thoracic aortic aneurysm from the hospital. […] Subsequently, the research divided C57BL/6 mice into 6 groups: after sham surgery, they were divided into a buffer group, an AGGF1 group, and an AGGF1-RDD^del group (Sham+buffer, Sham+AGGF1, Sham+AGGF1-RDD^del), and after the TAC surgery, they were divided into a buffer group, an AGGF1 group, and an AGGF1-RDD^del group (TAC+buffer, TAC+AGGF1, TAC+AGGF1-RDD^del), with each group having mice ≥6. Buffer was protein elution solution. 21 days after the TAC surgery, Doppler ultrasound was used to detect vascular luminal diameter, and carotid artery and aorta were collected for histological staining and Western blot to evaluate the effect of AGGF1. Starting from the second day after the surgery, recombinant AGGF1 protein or AGGF1-RDD^del protein was administered through intraperitoneal injection in the mice, with the same dose of EB as control, once every 2 days for 3 weeks. The protein dosage was 0.5 mg/kg."}, "[2]": {"tested_on": "TGFβ1 signaling pathway in VSMC cells (aortic smooth muscle cells)", "test": "VSMC cells treated with AGGF1 protein: Western blot, ELISA, RT-PCR of TGFβ1 signaling", "assay_type": "cell-based", "protocol": "FIG. 8 depicts that AGGF1 inhibits TGF-β1 and ERK1/2 signaling pathways and a TGF-β1-induced VSMC inflammation. […] Subsequently, cell lysates are collected for the western blot analysis of p-ERK1/2, T-ERK1/2, and p-Smad3. The GAPDH serves as a loading control. […] After 48 hours, the cell lysates are collected for the western blot analysis of p-ERK1/2, T-ERK1/2, and p-Smad3. […] The GAPDH serves as a loading control. […] Subsequently, mRNA is extracted using a Trizol method and reverse transcribed to obtain cDNA for a real-time RT-PCR detection of Il-6, Mcp1, Mmp2, and Mmp9 mRNA levels. […] Subsequently, mRNA is extracted using the Trizol method and reverse transcribed to obtain cDNA. The real-time RT-PCR is performed to analyze the mRNA levels of Il-6, Mcp1, Mmp2, and Mmp9. *, P<0.05; **, P<0.01; ***, P<0.001; n=3/group.\nThe β-actin serves as a loading control. […] The GAPDH serves as a loading control. […] The mRNA is extracted using the Trizol method and reverse transcribed to obtain cDNA. […] Cells are transfected with different plasmids of LAP-TGF-β1-FLAG and the integrin α7-FLAG, and treated with the purified AGGF1 or AGGF1-RDDdel for 24 hours, with grouping as shown in FIG. K. *, P<0.05; **, P<0.01; ***, P<0.001; n≥3/group.\nIn vitro experiments were performed using aortic smooth muscle cells and HEK293T cells. As shown in A-C of FIG. 8 and A-F of FIG. 9, whether with recombinant AGGF1 protein, AGGF1-FLAG overexpression, or AGGF1 silencing, Western blot analysis and ELISA experimental results verified that AGGF1 inhibits the TGFβ1 signaling pathway (Smad3 and ERK1/2) and the level of the mature TGFβ1. […] In the Western blot analysis of FIG. 10, it was verified that LAP-TGFβ1 interacts with integrin α7 through the RGD sequence, which is also the molecular mechanism by which integrin α7 inhibits TGFβ1."}, "[3]": {"conditions": "after TAC vs buffer, 0.5 mg/kg i.p. once every 2 days for 3 weeks, day 21"}, "[4]": {"conditions": "after TAC, 0.5 mg/kg i.p., day 21"}, "[5]": {"conditions": "regardless of sham or TAC surgery, 0.5 mg/kg i.p."}}}
{"molecule": "AGGF1 protein: recombinant human AGGF1 protein with His tag, SEQ ID NO:1, expressed from pet28-AGGF1 in Escherichia coli BL21 (DE3) (protein, listed as Homo sapiens, His tag) MASEAPSPPRSPPPPTSPEPELAQLRRKVEKLERELRSCKRQVREIEKLLHHTERLYQNAESNNQELRTQVEELSKILQRGRNEDNKKSDVEVQTENHAPWSISDYFYQTYYNDVSLPNKVTELSDQQDQAIETSILNSKDHLQVENDAYPGTDRTENVKYRQVDHFASNSQEPASALATEDTSLEGSSLAESLRAAAEAAVSQTGFSYDENTGLYFDHSTGFYYDSENQLYYDPSTGIYYYCDVESGRYQFHSRVDLQPYPTSSTKQSKDKKLKKKRKDPDSSATNEEKDLNSEDQKAFSVEHTSCNEEENFANMKKKAKIGIHHKNSPPKVTVPTSGNTIESPLHENISNSTSFKDEKIMETDSEPEEGEITDSQTEDSYDEAITSEGNVTAEDSEDEDEDKIWPPCIRVIVIRSPVLQIGSLFIITAVNPATIGREKDMEHTLRIPEVGVSKFHAEIYFDHDLQSYVLVDQGSQNGTIVNGKQILQPKTKCDPYVLEHGDEVKIGETVLSFHIHPGSDTCDGCEPGQVRAHLRLDKKDESFVGPTLSKEEKELERRKELKKIRVKYGLQNTEYEDEKTLKNPKYKDRAGKRREQVGSEGTFQRDDAPASVHSEITDSNKGRKMLEKMGWKKGEGLGKDGGGMKTPIQLQLRRTHAGLGTGKPSSFEDVHLLQNKNKKNWDKARERFTENFPETKPQKDDPGTMPWVKGTLE", "values": [{"measurement": "ascending aortic expansion (FIG. 5)", "setting": "[1]; TAC, 0.5 mg/kg i.p., day 21", "result": "significantly inhibit"}, {"measurement": "vascular thickening (H&E staining, ascending aorta, FIG. 5)", "setting": "[1]; TAC, 0.5 mg/kg i.p., day 21", "result": "significantly inhibit"}, {"measurement": "vascular expansion (right carotid artery, FIG. 3)", "setting": "[1]; [3]", "result": "significantly inhibit"}, {"measurement": "vascular remodeling (right carotid artery, FIG. 3)", "setting": "[1]; [3]", "result": "significantly inhibit"}, {"measurement": "vascular inflammation (MCP-1, CD68; right carotid artery, FIG. 4)", "setting": "[1]; after TAC vs buffer, 0.5 mg/kg i.p., day 21", "result": "significantly inhibit"}, {"measurement": "inflammation of the ascending aorta (FIG. 6)", "setting": "[1]; [4]", "result": "inhibited"}, {"measurement": "remodeling of the ascending aorta (FIG. 6)", "setting": "[1]; [4]", "result": "inhibited"}, {"measurement": "level of the mature TGFβ1 (Western blot, RCA, FIG. 4)", "setting": "[1]; [5]", "result": "inhibit"}, {"measurement": "p-ERK1/2 (Western blot, RCA, FIG. 4)", "setting": "[1]; [5]", "result": "inhibit"}, {"measurement": "p-Smad3 (Western blot, RCA, FIG. 4)", "setting": "[1]; [5]", "result": "inhibit"}, {"measurement": "effect on the carotid artery and aorta", "setting": "[1]; sham group, 0.5 mg/kg i.p. once every 2 days for 3 weeks", "result": "little effect"}, {"measurement": "TGFβ1-induced inflammation (Il6, Mcp1, Mmp2, Mmp9)", "setting": "[2]; RT-PCR, TGF-β1 24 hours then AGGF1 24 hours", "result": "inhibit"}, {"measurement": "level of the mature TGFβ1", "setting": "[2]; Western blot and ELISA, protein treatment 48 hours", "result": "inhibits"}, {"measurement": "TGFβ1 signaling pathway (Smad3 and ERK1/2)", "setting": "[2]; Western blot, TGF-β1 15 minutes then AGGF1 10 minutes", "result": "inhibits"}]}
